From article PMC7550718

How the values were obtained:
[1] = target: Full length wild type SHP1 (human) (UniProt P29350)
SHP1 R136Q (human) = SHP1 R136Q (human) (UniProt P29350)
SHP1 R30Q (human) = SHP1 R30Q (human) (UniProt P29350)
SHP1 R30Q R136Q (human) = SHP1 R30Q R136Q (human) (UniProt P29350)

increase of SHP1 phosphatase activity on DiFMUP with 0 to 3,000 nM SIRPα peptide (fold) [1]: 35 fold
increase of phosphatase activity on DiFMUP with 0 to 3,000 nM SIRPα peptide (fold at 3 μM) (SHP1 R136Q (human)): 3.5 fold
increase of phosphatase activity on DiFMUP with 0 to 3,000 nM SIRPα peptide (fold at 3 μM) (SHP1 R30Q (human)): 1.8 fold
increase of phosphatase activity on DiFMUP with 0 to 3,000 nM SIRPα peptide (fold at 3 μM) (SHP1 R30Q R136Q (human)): 1.1 fold
Substance: SIRPα di-phosphopeptide corresponding to residues 427 to 460 of human SIRPα (H2N-ITpYADLNLP-PEG8-HTEpYASIQTSK-NH2)
